According to paper PMC5638942:
pKi: −log10 of the molar value.

Legend:
[1] = biological target: PTHR1 (Homo sapiens) (UniProt Q03431); test: radioligand competition; details: cited from earlier work
[2] = biological target: PTH1 receptor (PTHR1), recombinant, on transfected HEK 293a cells (UniProt Q03431)

PTH, sequence (P01270 32-115): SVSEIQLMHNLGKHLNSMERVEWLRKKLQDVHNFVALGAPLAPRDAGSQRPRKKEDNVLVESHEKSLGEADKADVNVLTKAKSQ

Substance	pKi [1]	potency in cyclic AMP generation (10 min) in HEK 293a cells expressing PTHR1, against PTH(1-34) [2]
PTH1-34 1-34 (from UniProt P01270)	8.40	
PTH (from UniProt P01270)	8.70	
PTH-HRP (prepro-PTH(1-84) fused to the N-terminus of horseradish peroxidase, N175S mutant) (from UniProt P01270 32-115) (ligand)		5 fold
